Numbering of substitutions follows the chain as printed. Names and notes keep the numbering of the source. “Also recorded” adds a separate entry of the source. Where two headings read alike, the source gives them in different places.
B1: RcSxph: Rana (Lithobates) catesbeianus (American bullfrog) saxiphilin, SEQ ID NO: 1 (protein)
chain: MAPTFQTALFFTIISLSFAAPNAKQVRWCAISDLEQKKCNDLVGSCNVPDITLVCVLRSSTEDCMTAIKDGQADAMFLDSGEVYEASKDPYNLKPIIAEPYSSNRDLQKCLKERQQALAKKMIGHYIPQCDEKGNYQPQQCHGSTGHCWCVNAMGEKISGTNTPPGQTRATCERHELPKCLKERQVALGGDEKVLGRFVPQCDEKGNYEPQQFHGSTGYSWCVNAIGEEIAGTKTPPGKIPATCQKHDLVTTCHYAVAMVKKSSAFQFNQLKGKRSCHSGVSKTDGWKALVTVLVEKKLLSWDGPAKESIQRAMSKFFSVSCIPGATQTNLCKQCKGEEGKNCKNSHDEPYYGNYGAFRCLKEDMGDVAFLRSTALSDEHSEVYELLCPDNTRKPLNKYKECNLGTVPAGTVVTRKISDKTEDINNFLMEAQKRQCKLFSSAHGKDLMFDDSTLQLALLSSEVDAFLYLGVKLFHAMKALTGDAHLPSKNKVRWCTINKLEKMKCDDWSAVSGGAIACTEASCPKGCVKQILKGEADAVKLEVQYMYEALMCGLLPAVEEYHNKDDFGPCKTPGSPYTDFGTLRAVALVKKSNKDINWNNIKGKKSCHTGVGDIAGWVIPVSLIRRQNDNSDIDSFFGESCAPGSDTKSNLCKLCIGDPKNSAANTKCSLSDKEAYYGNQGAFRCLVEKGDVAFVPHTVVFENTDGKNPAVWAKNLKSEDFELLCLDGSRAPVSNYKSCKLSGIPPPAIVTREESISDVVRIVANQQSLYGRKGFEKDMFQLFSSNKGNNLLFNDNTQCLITFDRQPKDIMEDYFGKPYYTTVYGASRSAMSSELISACTIKHC
B2: E540A: RcSxph STX binding pocket mutant E540A (protein)
chain: B1 chain with E559A

Key:
[1] = test system: STX poisoning in female CD-1 mice; assay type: in vivo; conditions: RcSxph:STX 2:1 molar ratio, 30 nmoles/Kg STX, 60 nmoles/Kg RcSxph, IP, observed up to one hour
[2] = test system: TTX poisoning in female CD-1 mice; conditions: mouse, in vivo, ip
[3] = read-out: RcSxph affinity for STX; prior radioligand assay; cited from earlier work
[4] = test system: female CD-1 mice; conditions: 60 nmoles/Kg RcSxph, IP, observed up to one hour
[5] = assay type: binding; conditions: ITC, STX, 25° C.
Description: . […] In almost all mutants, binding affinity loss correlated with a reduction in enthalpy, consistent with a loss of interactions (Table S2). […]. […] Together, these three assays (FIGS. 1E and G) provide a robust and versatile suite of options for characterizing STX:Sxph interactions.
ITC measurements were performed at 25° C. using a MicroCal PEAQ-ITC calorimeter (Malvern Panalytical). […]. This STX stock was diluted with the SEC buffer to prepare 100 μM or 300 μM STX solutions having a final buffer composition of 135 mM NaCl, 9 mM HEPES, pH 7.4. […]. The calorimetric experiment settings were: reference power, 5 μcal/s; spacing between injections, 150 s; stir speed 750 rpm; and feedback mode, high. Data were analyzed using MicroCal PEAQ-ITC Analysis Software (Malvern Panalytical) using a single binding site model. The heat of dilution from titrations of 100 μM STX in 135 mM NaCl, 9 mM HEPES, pH 7.4 into 135 mM NaCl, 9 mM HEPES, pH 7.4 was subtracted from each experiment to correct the baseline.

[6] = assay type: binding
[7] = Thermofluor (TF) assay of STX binding; conditions: 1.1 μM Sxph, 0-20 μM STX; ΔTm at 20 μM toxin
[8] = assay type: binding; conditions: for Kd: FP
[9] = test system: Phyllobates terribilis NaV1.4 (PtNaV1.4); assay: Two-electrode voltage clamp: Sxph rescue of PtNaV1.4 from STX block in Xenopus oocytes; assay type: cell-based; conditions: [Sxph]:[STX] ratio, 100 nM STX, PtNaV1.4 in Xenopus oocytes

Row | Molecule | protection of mice from STX poisoning [1] | mitigation of TTX poisoning in mice [2] | Kd [3] [µM] | adverse effects of RcSxph alone [4] | Kd [5] [µM] | ΔH [5] [kcal/mol] | ΔS (cal mol^−1 K^−1) [5] [cal mol^−1 K^−1] | ΔH ([5]; listed as RcSxph WT) [kcal/mol] | ΔTm (TTX-induced change of melting temperature) [6] [°C] | ΔTm (STX-induced change of melting temperature) [7] | Kd ([8]; 1 nM F-STX, 25° C., errors S.D.) [µM] | Kd ([8]; F-STX) [µM] | ΔΔG ([8]; ΔΔG = RT ln(Kd mutant or XSxph/Kd RcSxph), T = 298K, FP with F-STX) [kcal/mol] | Effective Rescue Ratio50 (ERR50) [9]
1 | B1 | protects mice from STX poisoning; also recorded: sufficient to protect mice completely from STX intoxication | unable to mitigate TTX poisoning | ~0.001 | no detectable adverse effects | 0.0012 ± 0.0008 | -16.1 ± 0.2 | −12.7 ± 0.9 | -16.1 ± 0.2 | 0.3 | 3.6 °C | – | – | – | –
2 | B2 | – | – | – | – | – | – | – | – | – | complete loss of the thermal shift | 15.3 ± 4.13 | 15.3 | 4.52 | eliminated

From patent US20260034194A1, “PHARMACEUTICAL COMPOSITIONS AND METHODS OF TREATING PSP” (priority 2022, published 2026)
